Results reported in the nanobody polyreactivity screen of Harvey et al. (2022).

assay: yeast display, Sf9 membrane polyspecificity reagent, FACS + sequencing; frameworks hold sequencing errors
How it was run: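 Nanobodies came from a synthetic yeast display library in Saccharomyces cerevisiae BJ5465, induced with galactose for 36–48 hours and stained for 1 hour at 4 °C with 10% biotinylated, detergent-solubilized Sf9 membrane reagent. Cells were enriched on streptavidin microbeads and then FACS-sorted, with low and high (top ~1%) gates set on anti-HA fluorescence for expression and streptavidin fluorescence for reagent binding. Each polyreactivity label reflects the gate a clone came from. Genes were amplified by colony PCR, sequenced by MiSeq 2 × 250 and filtered by CDR length.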

Sequence | polyreactivity (PSR sort gate)
QVQLVESGGGLVQAGGSLRLSCAASGFTFRPNAMGWYRPAPAKERELVAAISGSGGSTYYADSVKGRFTISRDNAKNTVYLQMNSLKPEDTAVYYFAADSYYDGDYWGQGTQVTVSS | low polyreactivity
QVQLVESGGGLVQAGGSLRLSCAASGFTFRQYAMGWYRQAPGKERELVAAISRSGSRTYYADSVKGRFTISRDNAKNTVYLQMNSLKPEDTAVYYCNAVFSTITGEYYWGQGTQVTVSS | high polyreactivity
QVQLVESGGGLVQAGGSLRLSCAASGFTFRRNAMGWYRQAPGKEMELVASISSRGGITYYADSVKGRFTISRDNAKNTVYLQMNSLNPEDTAVYYCAVRFSRYTSNWRQSYDYWGQGTQVTVSS | low polyreactivity
QVQLVESGGGLVQAGGSLRLSCAASGFTFRRNTMGWYRQEPGKERELVAAITQRGGSTYYADSVKGRFTISRDNAKNTVYLQMNSLKPEDTAVYYCAVDRHSYIYKYDYWGQGTQVTVSS | high polyreactivity
QVQLVESGGGLVQAGGSLRLSCAASGFTFRRYAMGWYRQAAGKERELVASNSWRGGTTYYADSVKGRFTISRDNAKNTVYLQMNSLKPDDTAVYYCARGAATPPGYYSSGQGTQVTVSS | low polyreactivity
QVQLVESGGGLVQAGGSLRLSCAASGFTFRRYAMGWYRQAPGKERELVAAISIRGGRTYYADSVKGRFTISRDNAKNTVYLQMNSLKPEVTAVYYCAAAPVGYGKRFYYWGQGTQVTVSS | high polyreactivity
QVQLVESGGGLVQAGGSLRLSCAASGFTFRRYAMGWYRQAPGKERELVAAITRNGGSTYYADSVKGRFTISRDNAKNTVYLQMNRLKPEDTAVYYCNAVLYTPVYDGFDSWGQGTQVTVSS | high polyreactivity
QVQLVESGGGLVQAGGSLRLSCAASGFTFRRYTMGWYRQARGKERELVAGITTSGGTYYADSVKGRFTISRDNAKNTVYLQMNSLKPEDTAVYYCAARIYYLYGMDYWGQGTQVTVSS | low polyreactivity
QVQLVESGGGLVQAGGSLRLSCAASGFTFRRYVMGWYRQAPGKERELVAAISQRGGSTYYADSVKGRFTISRDNAKNTVYLQMNSLKPEDTAVYYCNIDYAGELDYWGQGTQVTVSS | high polyreactivity
QVQLVESGGGLVQAGGSLRLSCAASGFTFRRYVMGWYRQAPGKERELVAAISQSGGSTYYADSVKGRFTISRDNAKNTVYLQMNSLKPEDTAVYYCAAAKVPYGWEQSDYWGQGTQVTVSS | high polyreactivity
QVQLVESGGGLVQAGGSLRLSCAASGFTFRRYVMGWYRQAPGKERELVAAISQSGGSTYYADSVKGRFTISRDNAKNTVYLQMYSLKPEDTAVYYCAAVTSRYVLSTFYYWGQGTQVTVSS | high polyreactivity
QVQLVESGGGLVQAGGSLRLSCAASGFTFRRYVMGWYRQAPGKERELVAAISQSGGSTYYADSVKGRFTISRDNAMNTVYLQMNSLKPEDTAVYYCAAAKVPYGWAQSDYWGQGTQVTVSS | high polyreactivity
QVQLVESGGGLVQAGGSLRLSCAASGFTFRSNAMGWYRQAPGKERELVAAISSNGGRTYYADSVKGRFTISRDNAKNTVYLQMNSLKPEDTAVYYCAARGGYSQKRHDSWGQGTQVTVSS | high polyreactivity
QVQLVESGGGLVQAGGSLRLSCAASGFTFRSNMGWYRQAPGKEREFVAAITKSGGSTYYADSVKGRFTISRDNAKNTVYLQMNSLKPEDTAVYYCAARARYTTGYRIIYDYWGQGSQVTVSS | high polyreactivity
QVQLVESGGGLVQAGGSLRLSCAASGFTFRSYAMGWYRQAPGKERELVAAISSTGRTYYADSVKGRFTISRDNAKNTVYLQMNSLKPEDTAVYYCARNIPVSYYRYGYWGQGTQVTVSS | high polyreactivity
QVQLVESGGGLVQAGGSLRLSCAASGFTFRSYTMGWYIQAPGKERELVATITWNGGSTYYADSVKGRFTISRDNAKNTVYLQMNSLKPEDTAVYYCAADPPWNFWNYYRMDYWGQGTQVTVSS | low polyreactivity
QVQLVESGGGLVQAGGSLRLSCAASGFTFRVNAMGWYRQAPGKERELVAAISSGGSTNYADSVKGRFTISRDNAKNTVYLQMNSLNPEDNAVYYCAKRFKYIYYWGQGTQVTVSS | high polyreactivity
